# Data reported in patent US20260108605A1.
# Biological target: antibody anti-FITC IgG1 (prepared in-house)
# Experiment: SPR, Biacore 8K; anti-FITC IgG1 captured on Protein A chip, CD16a protein as analyte
Substance,Kd [nM],koff [s⁻¹],kon [M⁻¹ s⁻¹]
"1615E, recombinant fragment of the extracellular domain of CD16a protein with point mutation A195V (from UniProt P08637 17-208) (receptor)",576,0.113,196000
"1635E, recombinant fragment of the extracellular domain of CD16a protein with point mutation L194I (from UniProt P08637 17-208) (receptor)",506,0.121,240000
"1600WE, recombinant fragment of the extracellular domain of wild-type CD16a protein (from UniProt P08637 17-208) (receptor)",2600,0.258,99500
"1602E, recombinant fragment of the extracellular domain of CD16a protein with point mutation Q192P (from UniProt P08637 17-208) (receptor)",557,0.119,214000
"1600E, recombinant fragment of the extracellular domain of CD16a protein with natural mutation F176V (from UniProt P08637 17-208) (receptor)",484,0.119,245000
"1604E, recombinant fragment of the extracellular domain of CD16a protein with point mutation L194P (from UniProt P08637 17-208) (receptor)",477,0.113,236000
"1632E, recombinant fragment of the extracellular domain of CD16a protein with point mutation Q192N (from UniProt P08637 17-208) (receptor)",479,0.117,244000

# Results, then the substance that gave them:
Kd [nM],koff [s⁻¹],kon [M⁻¹ s⁻¹],Substance
448,0.117,260000,"1630E, recombinant fragment of the extracellular domain of CD16a protein with point mutation S197P (from UniProt P08637 17-208) (receptor)"
476,0.114,240000,"1626E, recombinant fragment of the extracellular domain of CD16a protein with point mutation V196M (from UniProt P08637 17-208) (receptor)"
415,0.112,270000,"1625E, recombinant fragment of the extracellular domain of CD16a protein with point mutation V196Q (from UniProt P08637 17-208) (receptor)"
402,0.107,267000,"1627E, recombinant fragment of the extracellular domain of CD16a protein with point mutation V196H (from UniProt P08637 17-208) (receptor)"
391,0.101,257000,"1637E, recombinant fragment of the extracellular domain of CD16a protein with point mutation V196S (from UniProt P08637 17-208) (receptor)"
418,0.105,251000,"1623E, recombinant fragment of the extracellular domain of CD16a protein with point mutation V196G (from UniProt P08637 17-208) (receptor)"
